In paper PMC4833398 one finds stoichiometry N and Kd data, which are given here for 3 molecules.

Experiment [1] concerns the target 1VH8-scaffolded V1V2 from HIV-1 strain CAP256-SU (trimeric scaffold). As to the kind of experiment: crystal structure.
The target of experiment [2] is these trimeric scaffolded V1V2s (1VH8- and 4F2K-scaffolded), expressed and purified in GnTI- cells. Kind of experiment: SPR.

The stoichiometry N is a count of units in the complex or per binding partner. Take “1VH8-scaffolded V1V2 from HIV-1 strain CAP256-SU (trimeric scaffold)”: in experiment [1], the stoichiometry N is 3.

B1: bNAb PG9 (antibody, V domains shown)
VH: QRLVESGGGVVQPGSSLRLSCAASGFDFSRQGMHWVRQAPGQGLEWVAFIKYDGSEKYHADSVWGRLSISRDNSKDTLYLQMNSLRVEDTATYFCVREAGGPDYRNGYNYYDFYDGYYNYHYMDVWGKGTTVTVSS
VL: QSALTQPASVSGSPGQSITISCNGTSNDVGGYESVSWYQQHPGKAPKVVIYDVSKRPSGVSNRFSGSKSGNTASLTISGLQAEDEGDYYCKSLTSTRRRVFGTGTKLTVL
Broadly, the Kd is the free concentration of one partner at which half of the binding sites on the other are occupied at equilibrium, for simple one-to-one binding. Turning to B1, the Kd in experiment [2] fell in the range of 0.024 to 0.5 µM.

B2: bNAb CH01 (antibody, V domains shown)
VH: EVQLVESGANVVRPGGSLRLSCKASGFIFENFGFSWVRQAPGKGLQWVAGLNWNGGDTRYADSVKGRFRMSRDNSRNFVYLDMDKVGVDDTAFYYCARGTDYTIDDAGIHYQGSGTFWYFDLWGRGTLVSVSS
VL: EIVLAQSPGTLSLSPGERATLSCRASHNVHPKYFAWYQQKPGQSPRLLIYGGSTRAAGIPGKFSGSGSGTDFTLTISRVDPEDFAVYYCQQYGGSPYTFGQGTKVEIK
As to B2, the Kd in experiment [2] fell in the range of 20 to 50 µM.
